Assay results published in a protein production outcome set (Wang et al. 2014).

Test: label from the status in PepcDB records

| Sequence | protein production |
| --- | --- |
| AIVHEMLKDTHPQYAYRSGMSAQEFTQWQDGVRAAMVEIMKFPEIKRQPSPVCVKTEKKEGYILEKWEFYPFPKSVSTFLVLKPEHLKGAVPGVLCIPGSGRTKEGLVGEPGICDKLTEDYNNPKVSMALNMVKEGYVAVAVDNAAAGEASDLECYDKGWNYDYDVVSRFLLELGWSWLGYTSYLDMQVLNWMKAQSYIRKDRIVISGFSLGTEPMMVLGVLDKDIYAFVYNDFLCQTQERAVVMTKPDKENRRPFPNSIRHLIPGYWRYFNFPDVVASLAPRPIIFTEGGLDRDFRLVQSAYAASGKPENAEFHHYPKFADKAVRKDVEHLDEGLDSKTYFEAVNVDPPSHYFKNELVIPWLRKVLK | not failed |
| MTPNYLDIAFLAVLGLFTLRGLFRGLVEEVAGLVGVIGGFWLANRHHADAAAYVGRVVEDPAWVGVLSYVVVFLGVLLVVSIVARIIRKLLVLSFAGWLDHLAGGAVGVAKGVIICSILLAVLMHFLPDASFVRDSRVIPHLAKVTSFIKGYLPQQIVN | failed |
| MTSFLSFSAISAHPPTFSGASFRPRSFSPRLFKSCVKCTYAEAGLSSASWSAPIDIVADVKSERVVVLGGNGFVGSAICKAAISNGIEVVSVSRSGRPNFEDSWLDQVTWVTGDVFYLNWDEVLLGATAVVSTIGGFGNEEQMKRINGEANVTAVNAAKDFGVPKFVLITVHDYNLPPFILSNGYFTGKRNAEAELLSKYPTSGVVLRPGFIYGKRKVNGIEVPLDLVGEPLDKIYDSAERFIRPLRSLPASDLILAPPVNVDDLALAVINAVKDDDFFGIFTIEQIKEAAAKMRA | failed |
| MNALPSSAEFSRAVGGDAVSREAVIRIEHLSKTFSDAAGPVLDDVSLTIRRGEIHGIIGRSGAGKSTLVRCINLLERPSAGRVIVSGREITSLRGRALRNARRDIGMIFQHFNVLSSHTVAGNVALPFKVAGLPRAEIARRIPPLLELVGLAHKADAYPSELSGGQKQRVGIARALALDPSVLLCDEATSALDPETTDQILALLRDINRKLGLTIVLITHEMHVVRDIATRVAVLDHGRVVEEGATFDVLAFPKSAVARSFLSGLVAHELPPPVAAQLLPAAVPGSDPVLRIVFTGTAAHDPIVADLVSVFGIQPNILHGRIDYVGDRPLGVLTLVAGGAGEKLPAVLSHLSSLGLVVEVIGHAVRSAVARRHSAARLEHHHHHH | failed |
| CTNYSLLKLAGDVESNPGPTIFSKASADLNALSTSLGELTGMLKDLKAKAETYSPFYKMAKMLFKLATLAVAAMRTKDPVVVVMLIADFGLEVFDTGFFFSYFQEELQPYMKTIPGKISDLVTDAATAAAQIPKGVYSFVSSFFETPEGAVEKQ | failed |
| MMIIGINGSPRKNGNTIEMLKSALDGAKAQGAETELINLYDYNYKGCVSCFSCKLKGGRSYGKCALKDDLKPILEKIEKADAFILASPIYFGMVTGEMRSFMERLLFQYLVYDKDHSSLFNRKIKTGFIYTMNVPETYLDSVGYNKLFESNEATLKRIFGASEYILSTDTYQFDDYSKYEASMFDVEAKKKRREEVFPEDCKRAYEMGASFVKLEHHHHHH | failed |
| MSLAHPPRLNDDKPVIWTVSVTRLFELFRDISLEFDHLANITPIQLGFEKAVTYIRKKLANERCDAIIAAGSNGAYLKSRLSVPVILIKPSGYDVLQELAKAGKLTSSIGVVTYQETIPALVAFQKTFNLRLDQRSYITEEDARGQINELKANGTEAVVGAGLITDLAEEAGMTGIFIYSAATVRQAFSDALDMTRMSLRHNTHDATRNALRTRYVLEGHHHHHH | not failed |
| MKQPLRVLISCRPEENSGGKRSEQNDAVFEFAAWLARTSDINVRGITTFIRPWPSSSISKLGGKYHKWYKNLDSYYRSRTIKGLKEAGVEKSQWDDDVSVFVDGPSESTLLTHAAEEFEADLILLGSDATAPKGRFLASSTADALLHSSPVPLGLVPRGVKLSKKGVTRVNYAFTNESDDFEQGLRSSAELATNWNVPLRILAFSPTGITSAPTSRSLDISTELSSEWRELTLAMLDRARDGVLTDHPNLSVSSETGSGWGWSGAIDALRWKKGDLLCMGSHRTDTLSRVFVGSETMEIIRNSPVPTIIYPGL | failed |
| MRNDRSFIELRARERAHALLDDGSYRELLDPFEGIMSPWLGAQGIVPQSDDGMVVAKGTINGQPAVVIAIEGTFQGGSMGEVSGAKMAAALELAAEDNRNGIPTQAVLCLETGGVRLQEANLGLAAIADIHAAIVDLRRYTPVVGIITGTVGCFGGMSIAAALCSYLIVTREARLGLNGPQVIEQEAGIEEYDSRNRPFIWSMTGGEIRAASGLVDALVNDGVNAVKTAMIEAIAKGVPAQHRSDNYDDYLRRLSQFDTRQQADTAQIKQLFAREDK | not failed |
| MDCKKFIQMVEEKKRRVLEKQEAPLKWEQKLEAAANAKADTETKVKRSKGPKRKQRAASESSSESDSSSEVRRKSRRSHNKHRRHAHSDSDDSDRRKEKKSRRQKRRSLSPSDDSTGDYESGSEDELRMKIKHHRRHKWHSSRKTCDDDSTEDVRRKHLKHHRRSEVVTSSDSEEESGRRRRGKYHRHNRGSASSSGSEEDSGKSMKRRQHKRHRLAESSSEEDGAMRRTRHHKHGRDSASESDGRR | failed |
| MAQKMTGALVFDERTDRYDIRFDLNSYYGGLHCGECFDVFVRGKWKPTRIEYGDNWYLVGIRAEDLNGLRVRILEHHHHHH | not failed |
| MSLKVVIGYLALDDWEFESLFPTIEWKYLTHINASFARVKADGTLNINPVRKRIESVRETAHKHNVKILISLAKNSPGEFTTAINDPKARKELIQQIIAFTKEYKLDGFDIDYEEYDNWDKNFPSLLVFARGLYLAKEKNMLMTCAVNSRWLNYGTEWEQYFDYINLMSYDRGAFTDKPVQHASYDDFVKDLKYWNEQCRASKSKIVGGLPFYGYSWEESLQGAVDDVRGIRYSGILKHLGNEAADKDNIGKTYYNGRPTIANKCKFIKENDYAGVMIWQLFQDAHNDNYDLKLINVVGREMMEEGHHHHHH | not failed |
| MTIDDMSLVVGMYGNYEVTKTGNLVGILEVSGINLDLLNETEQQDVFEDYGAFLMSTLGEGVDDTLQFLEPTIPVNMTTYLNGLKRRYLALQKDHPEQQFKIQLIASYLDHFTKVQESKNMTTKQHLLIVKVPIKDKSAESLNLAVAHLDEKIEQVKRDIENALTDFDVTAKILTSQEVQEILKNLINFNGLEHHHHHH | not failed |
| MPKKAREWGALDVKRAAHPGDGANVWHAVGGVAGLLLQITPTGAKSWLLRTTVAGTRRAMGLGSYPEVGLAEARERAREAKRKIAAGVDPIEERKATRAALAAAQRRSLTFADAADKWIKAKLSDRPEKSQKAVRATLTAYSFPEIGALTVQELTPQDVVRALNTIWTAKPDTATKMRGYLEAILSWATVSGYRTGDNPARWAGNLKELLPAPSVVAKGRAGNFPAVPVARLADWWEELGQREGMGATALRFAALTAARSGEVRGALWSEVDLDAALWVVPGARMKMGREHRVPLSGPAVALLRGLPRLAGTGDLIFPGPRGGILSDMSVSAVMRRMQEDAETEAKMAGRPVSAAGWRDTRTGRPAVPHGLRSSFRDWAAEVGYDRDMAEIALAHLVGSEVERAYRRSDMLERRRAMMERWADVLAGRSGASVVEFRRA | failed |
| MSAAQAVDDVPLEHAGNDVSDRMSLQRGVQLYMNYCVGCHSLKYLRYSRIAADLGLSEVQVMSTLNVTGAKFGDTIMTGMPVDTSEQWFGKIPPDLSLVARVRGSDWIYTYLRSFYVDSTRPLGWNNRLFVDVSMPNPLSHLQGVQRAEYGGASQAGADRLVTGLVLVQPGQQSPAEFDQTLRDIVNFLQYAAEP | failed |
| MIINITILEDNESDFITLSDSIKKWAANTGILINIIWLNSYKKFIKSLPTLKCDLFFSDIELNCNNSFTGIDACKQLRESGYTGIIIFLTAFKEYVFDGYDVQAFNYLLKPINYGTINNCLDKFIHLFSREFYYYHKGNDIISIPYNDIMYIEKNGHDVILHTTSNVFVERISLNEISKRLPVFFIRAHKSYIVNINKVLSLRINELFLPNNVTIPVSRSYLTNIKKKLLEIAR | failed |
| VRISRPDVLLNIHIAQTTCTLSLDSSGESLHRRGYRQEAVEAPLNEVLAAGMILMTGWKGECDLIDPMCGSGTIPIEAALIARNIAPGVFRKEFAFEKWGDFDQNLFDRIYNDDSQEREFTHKIYGYDNNPKANEIATHNVKAAGVSKDIILKLQPFQQFEQPAEKSIIITNPPYGERISTNDLLGLYNMIGERLKHAFVGNDAWILSYREECFDQIGLKPSVKTPLFNGPLECEFRKYQIFDGKY | failed |
| GQLSIKLWFDKVGHQLIVTILGAKDLPSREDGRPRNPYVKIYFLPDRSDKNKRRTKTVKKTLEPKWNQTFIYSPVHRREFRERMLEITLWDQARVREEESEFLGEILIELETALLDDEPHWYKLQTHD | not failed |
| MQWRNTSSRYGVFSLFLHWGSALVVFGLFGLGLWMRELSYYDPWYHPAPALHKSIGILLAIALLVRIVWRFVSPPPPAPANHGPLTRVASKLGHLALYGLLLAVIVAGYLISTADGEPISVFGWFSVPATLSGLPDQADVAGEIHLYLAWALVVFAVLHALAALKHHFVDRDPTLKRMLGRSSNDQQPR | not failed |
| ITSFIRNRDKLTQAEYLLRLAGEKASLGGWRIELDPPVITWTSETAVIHGMPPDYSPPDVGTAVQFYAPEFREFIMEVFERCVQQGEPFDVICQLQVPDGRRPWIRAIGEAERDAQGKVIVVQGAFQDIS | failed |
| MANKEKLPWDLEEEILSRVPPTSLDRFKTVCKRWNALFNDKTFINNHKMTFQFVLSTRSKIYSVSVNPKVEVRELTLNNPGLKAQRHKNLFATSGLLLCDVGNGAVVWNPWLKQSRCIKLEVNEPSLDFLGIGYDNNKRVEEIVYKTLSVYMKDLGSQYTWKIHDFASDTWIDQEIEKTKYSRRITEGSVTIRLTNLSVVSLNGKFFKFCDLPSGKNRRRDALALRVFREDRFSLLRQCHVTKKIKIWVTKNKIDNRYGGDVKWMSFMEVSIPTMPDLEHPKFNSQPSYFIDDKRLVICSCDETGRAWIYVVGGNKLVSKTQLDSVVDPWPLHCTYFPSLVLVPGGQREEAELQEAKNLHVTTELYVPGKTKSSIKLHYG | failed |
| MKKYFITIMILLFGTLILAACQNSDEADNYEPPKVDLKDQIPIILIHGSGGNASSLDKMADQLMNEYRSSNEALTMTVNSEGKIKFEGKLTKDAKRPIIKFGFEQNQATPDDWSKWLKIAMEDLKSRYGFTQMDGVGHSNGGLALTYYAEDYAGDKTVPTLRKLVAIGSPFNDLDPNDNGMDLSFKKLPNSTPQMDYFIKNQTEVSPDLEVLAIAGELSEDNPTDGIVPTISSLATRLFMPGSAKAYIEDIQVGEDAVHQTLHETPKSIEKTYWFLEKFKTDETVIQLDYK | failed |
| MSLIFTAIVVFLFILAIFDLIVGVSNDAVNFLNSAIGAKAAPFKIIVGVAALGVFCGAAMNNGMMEIARHGIFRPEHYTFSELMVVFLSVVITDVVLMDMFNSLGMPTSTTVSLIFELLGGSFFMAMTKVGGTVGFQDLLNTEKALSVILGIFLSVGIAFFFGMVVQYLSRLLFTFNYRRNLRWLAGLFGGVAVTSIIYFMLIKGLKGVSFMTEESTAWIAANTGRLVLYCLVVSIILMQVLYWLRVNVFKVIVLLGTFALAMAFAGNDLVNFIGVPLAGYSSYLDFNANGNGQYDTYLMGALNEPASTPVYFLVAAGIVMVYALITSKKAHNVIKTSVDLARQEEGEEMFGSSGLARSIVRFSTTTANAVSRIIPRPVGRWIDSRFNQDELIMAKGAAFDLVRASVNLVLAGLLIAFGTSLRLPLSTTYVAFMVAMGTSLADRAWSRESAVFRITGVFSVIGGWFITAGAAFILCFLVTMVNHFGGYPAMAGMIILAIFLLVRSHIRFDKKKKSETKDTVFIDMMASHDKEEIWQLLAKHIRQKQLALLDFAENNYMQMTDGFINEDLKRLRRSINDQNAERQMLKVNRRKETLGIRRIEEAKSVVKNTWFHLGCNSCEQIVFCLKRIAEPCKEHVDNNFNPLPKVCVSEFLAAREKLILYIKEAKLIVSNETDEILDPMTYRGKDIKKELKQLRKTQLSRIQQGASSLKISLVYLNLLQESQQLVNILDDLIHATEKLFDPVARIGTDEEFFN | failed |
